This is an account of results in the domain aggregation screens of Martell et al. (2025).

The data set can be described thus: soluble fraction after stress (log2 fold change); higher = more stays soluble; pooled small domains, quantitative proteomics. The settings on record: stress: 50 degC. Put shortly: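 Pooled custom libraries of small protein domains were measured in a high-throughput format, with quantitative proteomics as the read-out. Each library was stressed at 50°C. Aggregation propensity is given as the base-two logarithm of the fold change in how much of each protein stays soluble after the stress. Higher values mean a larger share of the protein remains in solution.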
Consider “HMAIDWVQIKAEYISGTMSASKLAEKHGVSVYAIRKRSGKERWQELRRQNQSETANKIAEKI”, for which the “soluble fraction (log2)” value is -1.6. The value for “HMNIEANLEDILRRAMPSAAKLILENSLNINKIIGTGKEGRITKGDVLLYLKDKNLILENILN” was -0.173; that for “HMHPEETVNLILDAAFRLFLEKGYEHTSIQDIIGQLGGLSKGAIYHHFNSKEDILIAVTDRMTA” was -1.81. Under “HMPLLSPRQLDVLSLAAGGLSDAQIAGRLVLSESTVRVHFHHIIEKLGVTDRAGAIAWYEQSRS” stands -1.03; under “HMQADKYKSYTATDFLKDKDFLRWQLFNGEEDMLFWGRVIEEYPALRSRVEEGIVLYKDNIR”, -0.981; under “HMAASEAESIRILLSEGVDRVHLRKPQSAEADMRRLIEALPPELYPRLTLQDHLHLAGEYGT”, 0.0186. The value for “HMQVPWYQRLKEKRLEYGVSQNKLATHIGISRQYMSEIETGKVTPSDSLQATLFDILEQFNPDA” was -0.363; that for “HMHPLFRVVLAGEPNGVGLDDWLTRHEAELINGPSAIGVLTVKIAMGRRSFETVLDEIRADGETIFVEPV” was -2.66; that for “HMDGLGLGAVILAQRKRQGWTQEDLAARIGVSKGAVSKWETGQSYPDLPLVPRLAALFHITVDELLDYR” was -0.662. For the sequence “HMNAKNPRALAIQYVFKMQMGNFLHAKTDNQQQEQERIMTLFNEENKNTILPRWGKELLSYINRN”, the “soluble fraction (log2)” value is -0.695. For “HMTGSAETRGITLTDEQVTVWAKDGSWANYVYRATDGNWYDGSGRLYYENGGGEWTQAATGEQGS”, the “soluble fraction (log2)” value was -0.0258. The value for “HMKEQLLLGFKVRSLRGIDLGFVKFIEGSAFQSFLKTDLTIIPNVPNYVKKIDNVKKIILVDWESD” was -2.69; that for “HMSRLLRTDAHLQYAAERGLPVTASAYTPVFAGAKQYTGRIESFDAQTIRFADGPAVERKAVARLEAE” was 0.159. The value for “HMYTTHTQSELNEAARFNGRATYQKGIYYNESKKEHFKVVNGKYQALPNVKQVNGDSWIDKTGITHKG” was -0.171; that for “HMSGIESIVIPLKGLDFDMISSTLTPQLKQAIKYDKQSDSIILVGTNAKVNIIAKQVNAMVEVYKLKT” was -0.444; that for “HMGSGQVTLPDLEGKSMKEVARILSQLGLHLSPDGHGLAFKQSPAAGTRVPVGSTIKVSFQPL” was 0.0366. The value for “HMDSRVRHAVLTTLLGKRIVDDLVEKGELPGTPLVLATAPGLDRDLEQLIAQRVVTALLTTV” was -0.082; that for “HMPDLSMLDEVLDEYRSQAGSLVTVLQKAQDLYGYLPLTILRHIAEEMNIKPAQVYGVATFYTQFRL” was -0.0547; that for “HMFSVVDKITLQEELKKLSKKEQLLIQLRYYDELNQEEIAKIFHVSQVQISRMEKKIIEKLKKQF” was -3.58. Regarding “HMDSKYLRIFSTLIDEMEKMSPGEQLQSERELSQRFQVSPMTVRRALHKLSTEGYTSAIPGKGTFVRK”, the “soluble fraction (log2)” value was -0.307. Consider “HMTVSKLKVINYTIRNGDSLWTISRKFNVTVDKVKEWNGLSDRTLLQPGQKLTLYVDPTIQISH”, for which the “soluble fraction (log2)” value is -0.0925. The value for “HMLPIKLDLEIGENVRVVSGPLENFVGSVVSFDTDQQKVKLVVEMFGRKTPVELDFIEVQKLR” was -0.435; that for “HMSPQPPNQEAVRTRILDQAAHLFLTIGYAETTVRRIAGAVGIKAASLYHHFGSKDEVFESILIR” was 0.0413. With “HMTEVPSLSSLKIGDLIFYRNNKGAIAHSAIITSFYNGRPFISQHTFNALNITYVKDWASKMHFIKIW”, the “soluble fraction (log2)” value is -0.0353. The value for “HMGDAIPVPDVSGFSEDQAMNNLRKVGLRPKATYVADDNTAKGYVTGTSPAKNIEVAPDSEVIVYVSSGP” was 0.238; that for “HMNPFLELTEREMDVLRLIAIGRNNQEIASELVISEKTVKTHITNIFSKLHFKDRTQAAAYAWQSGIVR” was -0.74. The value for “HMGLLLSQLDKDYQRYIDLADSTFRDNQLAVSRGWYNRALGVKAAEKYPKDQIAEIEKKIAERM” was -0.181; that for “HMNLLSPREKQSLTLYASGLTLREVASELKLSPNSVGKFISRGKFKLNKSGAIVNSKTSIYLELKKRNLI” was -0.111. The value for “HMKPVSEMDNMEWVREQYFQNMIYEIGEWVKDKKTGIVGEIVKRGTNYVTIVQEDFSLHKIWLEDLETTE” was -0.325; that for “HMDEKLAHKLVSDFRQAAASLERFPFRNPVLRSEVFTVEKYRKLVFDKYHILLYQVKDQVVYVEYVIDGRQ” was -0.75; that for “HMASENISYSQFINQVKNSMVESVSIEADGKTISGKYKSGSSFVTYGLNDPKLVDDLLSNNVEIL” was 0.159. For the sequence “HMGIKYTNQRVEILNFLKDNLSHPTVDDVYEGVKKKLTRISKATVYQNLKFLASKGLIQEVNIKGVSRFEP”, the “soluble fraction (log2)” value was -1.32. Under “HMTIGEALLNLRKQLGLNQTEMAANVVSTSFYSKVERNIHDIGTKDLLQILNKHQINATYFFENLN” stands -1.91; under “HMAQTTKWREIHKVKRKETIFGIARDNGLTVDELIEANPEMTKPGYELKKGDFIYIPFPSKNIDTNAGTQT”, -0.157. “HMSDEIQLQFIQISIFKDHPWADMQIKDMNIIPDLLIVMILRDGERIIPNGNTRIMPGDMVIITAMSANT”: the “soluble fraction (log2)” value was -2.89. Under “HMAERLQARIDAPGVRLDKALAETFPTLSRARLQALLADGAVTRDGQTVSNGSAKAQPGLYVVALPPVA” stands 0.381; under “HMGKEDISQINKLYQNQILDYETYIDTLNSFNIDTKSKDFKNLLDLFIKKSISFETFNKGIINIHNKS”, 0.11. Under “HMEKAKVPSVIGMTEANAKRTIRDAGFKVGRVTRVESEAYDKGKVIEQQYEAGSELEKKKPISIVVSKGKK” stands -0.162; under “HMVYNQYILTQSVRLREEPGISGRVIRLLETGTTVELVDTVVVNKDDYDWVWVKLSDGAVGWIIKSAIDI”, -0.529; under “HMDQTIFFGQQKAINNLSTDAGLSATELDEYLKKRYKRPLYQLTQAEGAEIIKGFQDGALSRSSILDYTK”, -0.00165.

Turning to “HMRNDIFDQLTEREMQILQEVAKGYRNKQIADHLFISESTVKVHMKSLLKKLQVPSRTAATVLYLERYG”, the “soluble fraction (log2)” value was -1.66. On to “HMLKEGQYSPNHFHWHKMEDIINRGGGTLLIRVYNSLPDEEIDRESDVTVHMDGVTRTVPAGTQLRLE”, for which the “soluble fraction (log2)” value is -0.229. Under “HMLANLNKELQNDAALLKQKAQGNSNLLAKIQDVEQQMKQVNTSSASDEAKAKELQTLQRKLTAYKKALA” stands 0.0101. For “HMLPIMDRLITAGISINTAKKWVDKFGDKRIKQNLAYSLAKQKEGKVKTNFVGYLAKAIEEDWGSGWE”, the “soluble fraction (log2)” value was -0.557. The value for “HMKFSVEEQFKKSFPKNTYETFSETSLKGVYEVYNGKQVYYYLPVNDVLLLGSIVTKDGKNLTQESNSKK” was -0.0811. For the sequence “HMIAPQISSGKVNTKELNVRSGPATTFGIVKKLPLNAMVGIFEEKNGWFRIATGQWVSKTYVDL”, the “soluble fraction (log2)” value was -1.5. Consider “HMGKAVTLEEARAIIQAKVPGASPDMIQIWEEHGDGRGRYEGELSYNNMKYEFEMDPKTGIIFDWNA”, for which the “soluble fraction (log2)” value is -0.224. Under “HMPDAGQRRYLELVTALAGARSLTIDDLERRAIRFAEWGNGYSGRTARQFIDTLLQDRGVAEEL” stands -0.405; under “HMATARPPPPPESRVEVLFDGRWYAGTVVGGALDEHRATVFFDADRLSQVINFAETGIRVLGT”, -0.0673; under “HMGASFITSSKDNAINIRESATTDSKVIETIKNGEILESTEKSGDWHKVTYYNSEIKKSFTGYIHNSQLK”, 0.168.
